Results published in US20200390859A1 (NGM BIOPHARMACEUTICALS, published 2020).

Molecular target: mouse FGFR4/β-klotho complex co-expressed in rat L6 myoblast cells (mouse, UniProt Q03142 17-799; Q99N32 1-1043)
Experiment: cell-based or functional assay

Sequence of mouse FGFR4/β-klotho complex co-expressed in rat L6 myoblast cells (Q03142 17-799, chain 1 of 2): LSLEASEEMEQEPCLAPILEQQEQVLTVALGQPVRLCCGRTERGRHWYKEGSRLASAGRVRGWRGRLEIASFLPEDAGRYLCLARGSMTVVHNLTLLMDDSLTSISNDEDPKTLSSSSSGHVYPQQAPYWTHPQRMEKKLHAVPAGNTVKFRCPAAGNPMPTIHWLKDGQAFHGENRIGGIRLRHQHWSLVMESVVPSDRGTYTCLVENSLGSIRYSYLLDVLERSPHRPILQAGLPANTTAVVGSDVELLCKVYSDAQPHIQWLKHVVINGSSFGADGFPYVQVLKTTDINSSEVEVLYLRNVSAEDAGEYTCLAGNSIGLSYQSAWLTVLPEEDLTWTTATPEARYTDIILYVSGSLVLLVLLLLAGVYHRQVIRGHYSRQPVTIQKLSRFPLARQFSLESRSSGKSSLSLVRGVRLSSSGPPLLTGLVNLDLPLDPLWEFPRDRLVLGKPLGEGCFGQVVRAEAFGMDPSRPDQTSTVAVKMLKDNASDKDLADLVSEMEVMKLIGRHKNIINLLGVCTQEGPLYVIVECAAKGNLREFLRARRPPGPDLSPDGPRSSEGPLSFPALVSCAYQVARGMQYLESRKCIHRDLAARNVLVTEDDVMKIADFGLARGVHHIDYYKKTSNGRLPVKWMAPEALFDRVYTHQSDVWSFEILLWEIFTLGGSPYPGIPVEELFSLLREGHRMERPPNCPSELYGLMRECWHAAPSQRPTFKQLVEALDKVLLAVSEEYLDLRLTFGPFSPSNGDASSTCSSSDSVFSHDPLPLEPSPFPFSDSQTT
Sequence of mouse FGFR4/β-klotho complex co-expressed in rat L6 myoblast cells (Q99N32 whole entry, chain 2 of 2): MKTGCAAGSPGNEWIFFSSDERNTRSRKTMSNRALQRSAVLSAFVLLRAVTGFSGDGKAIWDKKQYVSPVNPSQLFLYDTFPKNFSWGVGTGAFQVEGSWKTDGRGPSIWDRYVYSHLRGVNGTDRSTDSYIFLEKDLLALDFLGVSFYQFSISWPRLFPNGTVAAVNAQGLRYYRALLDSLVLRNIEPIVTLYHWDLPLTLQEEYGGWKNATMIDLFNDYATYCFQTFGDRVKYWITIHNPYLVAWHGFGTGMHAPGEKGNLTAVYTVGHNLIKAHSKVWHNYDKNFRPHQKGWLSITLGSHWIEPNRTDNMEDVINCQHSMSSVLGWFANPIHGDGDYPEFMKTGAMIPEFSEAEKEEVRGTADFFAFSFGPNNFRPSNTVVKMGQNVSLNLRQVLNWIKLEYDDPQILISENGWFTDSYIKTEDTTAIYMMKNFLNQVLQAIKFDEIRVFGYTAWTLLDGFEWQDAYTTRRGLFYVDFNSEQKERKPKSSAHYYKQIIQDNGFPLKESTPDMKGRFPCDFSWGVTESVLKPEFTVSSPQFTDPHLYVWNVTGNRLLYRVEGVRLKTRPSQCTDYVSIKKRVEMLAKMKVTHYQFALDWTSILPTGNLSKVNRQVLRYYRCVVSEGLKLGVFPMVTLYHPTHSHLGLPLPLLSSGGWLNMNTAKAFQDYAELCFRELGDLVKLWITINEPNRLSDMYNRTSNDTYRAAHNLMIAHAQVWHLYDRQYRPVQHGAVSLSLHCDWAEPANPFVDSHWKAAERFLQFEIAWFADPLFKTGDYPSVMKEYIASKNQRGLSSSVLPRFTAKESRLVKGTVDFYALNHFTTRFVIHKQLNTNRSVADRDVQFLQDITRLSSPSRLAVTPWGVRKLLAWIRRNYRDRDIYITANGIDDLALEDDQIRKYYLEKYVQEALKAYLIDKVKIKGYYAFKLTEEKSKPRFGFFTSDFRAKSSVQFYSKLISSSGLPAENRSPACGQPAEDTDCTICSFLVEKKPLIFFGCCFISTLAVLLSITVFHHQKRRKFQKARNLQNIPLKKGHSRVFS

B1: M70 (FGF19 variant) (ligand)
chain: MRDSSPLVHYGWGDPIRLRHLYTSGPHGLSSCFLRIRADGVVDCARGQSAHSLLEIKAVALRTVAIKGVHSVRYLCMGADGKMQGLLQYSEEDCAFEEEIRPDGYNVYRSEKHRLPVSLSSAKQRQLYKNRGFLPLSHFLPMLPMVPEEPEDLRGHLESDMFSSPLETDSMDPFGLVTGLEAVRSPSFEK
With B1 the “EC50 (pM), ELK1 luciferase reporter in L6 cells transfected with mouse FGFR4 and β-klotho” value was 38.3 pM and the “Emax (fold potentiation), ELK1 luciferase reporter in L6 cells transfected with mouse FGFR4 and β-klotho” value was 1.85 fold potentiation.
